Reference: patent US20120093810A1 (EVEC, published 2012)
Positions count from the first letter of the chain named. Names and notes keep the numbering of the source. No end group written: not given here. cellulose membrane = not defined here

How the values were obtained:
[1] = target: T1, synthetic gB peptide, Peptide 3 in Table 5 (human cytomegalovirus, AD169 strain, reading uncertain); experiment: peptide array (SPOTs), dot blot
T1 construct: also called peptide number 3
T1 peptide: SCVTINQTSVKV-{cellulose membrane}

[2] = target: T2, synthetic gB peptide, Peptide 7 in Table 5 (human cytomegalovirus, AD169 strain, reading uncertain); experiment: peptide array (SPOTs), dot blot
T2 construct: 12-mer of gB; also called peptide number 7
T2 peptide: NVKESPGRCYSR-{cellulose membrane}

[3] = target: T3, synthetic gB peptide, Peptide 8 in Table 5 (human cytomegalovirus, AD169 strain, reading uncertain); experiment: peptide array (SPOTs), dot blot
T3 construct: 12-mer of gB; also called peptide number 8
T3 peptide: SPGRCYSRPVVI-{cellulose membrane}

[4] = target: T4, synthetic gB peptide, Peptide 22 in Table 5 (human cytomegalovirus, AD169 strain, reading uncertain); experiment: peptide array (SPOTs), dot blot
T4 construct: 12-mer of gB; also called peptide number 22
T4 peptide: YEYVDYLFKRMI-{cellulose membrane}

[5] = target: T5, synthetic gB peptide, Peptide 21 in Table 5 (human cytomegalovirus, AD169 strain, reading uncertain); experiment: peptide array (SPOTs), dot blot
T5 construct: 12-mer of gB; also called peptide number 21
T5 peptide: GNSAYEYVDYLF-{cellulose membrane}

[6] = target: glycoprotein gB of clinically isolated HCMV strain T-137 (human cytomegalovirus, clinical isolate …); experiment: cell-based or functional assay
[7] = target: glycoprotein gB of HCMV laboratory strain Merlin (human cytomegalovirus, Merlin strain, UniProt F5HB53 25-907); experiment: cell-based or functional assay
[8] = target: glycoprotein gB of HCMV laboratory strain Davis (human cytomegalovirus, Davis strain); experiment: cell-based or functional assay
[9] = target: T6, glycoprotein gB of human cytomegalovirus (HCMV) AD169 strain (human cytomegalovirus, AD169 strain, UniProt P06473 32-906); experiment: cell-based or functional assay
[10] = target: glycoprotein gB of clinically isolated HCMV strain MDU-1 (human cytomegalovirus, clinical isolate …, UniProt P08195); experiment: cell-based or functional assay
[11] = target: glycoprotein gB of HCMV laboratory strain Towne (human cytomegalovirus, Towne strain, UniProt P13201 23-907); experiment: cell-based or functional assay
[12] = target: T6, glycoprotein gB of human …; experiment: cell-based or functional assay; remark: listed apart in the source
[13] = target: T7, GST-fused HCMV-AD1 (AD1 region of HCMV glycoprotein gB) (human cytomegalovirus, AD169 strain, UniProt F5HB53 485-651); experiment: ELISA on solid-phased AD1
T7 construct: also called solid-phased AD1; AD1 antigen; not shown: glutathione S-transferase (GST) fusion partner

[14] = target: T6, glycoprotein gB of human …; experiment: cell-based or functional assay; remark: listed apart in the source

glycoprotein gB of clinically isolated HCMV strain MDU-1, sequence (P08195 102-630): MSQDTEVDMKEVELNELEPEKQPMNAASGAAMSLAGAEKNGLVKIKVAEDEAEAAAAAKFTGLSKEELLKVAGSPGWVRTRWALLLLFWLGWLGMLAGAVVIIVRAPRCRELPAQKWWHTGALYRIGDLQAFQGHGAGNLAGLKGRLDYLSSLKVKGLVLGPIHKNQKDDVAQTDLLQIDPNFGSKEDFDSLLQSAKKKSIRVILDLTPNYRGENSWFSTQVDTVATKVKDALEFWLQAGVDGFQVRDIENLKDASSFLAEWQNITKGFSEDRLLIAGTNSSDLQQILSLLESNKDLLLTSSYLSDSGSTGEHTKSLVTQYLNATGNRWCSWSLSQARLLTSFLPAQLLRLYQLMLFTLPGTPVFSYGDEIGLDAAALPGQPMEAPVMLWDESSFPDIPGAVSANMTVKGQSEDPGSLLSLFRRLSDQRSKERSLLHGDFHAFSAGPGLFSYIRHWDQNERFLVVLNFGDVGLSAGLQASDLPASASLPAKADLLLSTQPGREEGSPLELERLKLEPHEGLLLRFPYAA
T7 sequence (F5HB53 485-651): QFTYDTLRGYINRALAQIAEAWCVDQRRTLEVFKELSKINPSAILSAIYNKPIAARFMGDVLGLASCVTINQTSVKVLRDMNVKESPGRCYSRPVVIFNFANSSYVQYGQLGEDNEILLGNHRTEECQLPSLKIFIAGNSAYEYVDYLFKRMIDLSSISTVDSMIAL
T6 sequence (P06473 32-906 limits assumed): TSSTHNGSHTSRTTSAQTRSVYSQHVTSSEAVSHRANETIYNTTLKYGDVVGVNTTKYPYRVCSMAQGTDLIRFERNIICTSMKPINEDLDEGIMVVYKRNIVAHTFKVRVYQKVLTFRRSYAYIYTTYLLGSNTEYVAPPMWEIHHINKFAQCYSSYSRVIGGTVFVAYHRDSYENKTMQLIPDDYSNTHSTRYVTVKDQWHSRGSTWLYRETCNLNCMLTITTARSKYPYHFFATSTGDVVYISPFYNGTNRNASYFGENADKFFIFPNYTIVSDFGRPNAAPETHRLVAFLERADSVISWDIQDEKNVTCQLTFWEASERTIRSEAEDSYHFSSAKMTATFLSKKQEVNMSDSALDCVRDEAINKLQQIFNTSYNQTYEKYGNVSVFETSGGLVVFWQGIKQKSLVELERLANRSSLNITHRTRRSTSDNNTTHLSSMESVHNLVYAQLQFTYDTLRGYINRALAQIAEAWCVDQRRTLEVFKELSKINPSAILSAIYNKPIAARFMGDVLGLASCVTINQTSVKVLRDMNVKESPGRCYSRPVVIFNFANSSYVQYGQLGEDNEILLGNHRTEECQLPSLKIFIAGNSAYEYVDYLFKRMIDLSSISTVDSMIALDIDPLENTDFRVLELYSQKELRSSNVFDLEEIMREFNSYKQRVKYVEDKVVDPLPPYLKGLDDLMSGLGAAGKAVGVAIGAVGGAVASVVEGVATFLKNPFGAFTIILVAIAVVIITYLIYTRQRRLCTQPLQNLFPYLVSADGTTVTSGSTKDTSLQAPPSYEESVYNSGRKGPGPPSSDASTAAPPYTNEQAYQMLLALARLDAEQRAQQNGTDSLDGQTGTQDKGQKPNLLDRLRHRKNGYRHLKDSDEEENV
glycoprotein gB of HCMV laboratory strain Merlin, sequence (F5HB53 25-907 limits assumed): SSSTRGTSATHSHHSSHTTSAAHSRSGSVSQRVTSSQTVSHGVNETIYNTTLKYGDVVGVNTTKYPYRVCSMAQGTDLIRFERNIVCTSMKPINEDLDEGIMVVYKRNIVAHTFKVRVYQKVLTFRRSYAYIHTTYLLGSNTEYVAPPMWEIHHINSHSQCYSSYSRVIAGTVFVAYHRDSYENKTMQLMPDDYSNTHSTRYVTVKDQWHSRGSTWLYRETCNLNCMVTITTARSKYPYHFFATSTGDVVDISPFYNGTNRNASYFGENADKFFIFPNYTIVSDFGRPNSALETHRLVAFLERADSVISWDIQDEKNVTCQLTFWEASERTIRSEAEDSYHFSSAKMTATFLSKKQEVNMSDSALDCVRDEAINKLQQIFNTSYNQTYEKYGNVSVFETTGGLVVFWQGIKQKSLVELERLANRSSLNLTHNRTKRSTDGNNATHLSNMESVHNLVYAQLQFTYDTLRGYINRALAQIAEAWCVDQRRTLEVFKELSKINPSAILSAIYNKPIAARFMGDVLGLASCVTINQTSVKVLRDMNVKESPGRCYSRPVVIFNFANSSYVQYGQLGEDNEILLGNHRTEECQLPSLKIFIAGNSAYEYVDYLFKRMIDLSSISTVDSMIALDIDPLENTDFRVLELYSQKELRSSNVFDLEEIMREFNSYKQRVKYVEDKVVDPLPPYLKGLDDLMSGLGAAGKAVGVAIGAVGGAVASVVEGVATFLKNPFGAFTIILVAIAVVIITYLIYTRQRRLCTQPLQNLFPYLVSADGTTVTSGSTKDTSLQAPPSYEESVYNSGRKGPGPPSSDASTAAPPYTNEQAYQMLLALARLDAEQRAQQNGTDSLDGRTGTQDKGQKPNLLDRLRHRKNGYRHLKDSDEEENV
glycoprotein gB of HCMV laboratory strain Towne, sequence (P13201 23-907 limits assumed): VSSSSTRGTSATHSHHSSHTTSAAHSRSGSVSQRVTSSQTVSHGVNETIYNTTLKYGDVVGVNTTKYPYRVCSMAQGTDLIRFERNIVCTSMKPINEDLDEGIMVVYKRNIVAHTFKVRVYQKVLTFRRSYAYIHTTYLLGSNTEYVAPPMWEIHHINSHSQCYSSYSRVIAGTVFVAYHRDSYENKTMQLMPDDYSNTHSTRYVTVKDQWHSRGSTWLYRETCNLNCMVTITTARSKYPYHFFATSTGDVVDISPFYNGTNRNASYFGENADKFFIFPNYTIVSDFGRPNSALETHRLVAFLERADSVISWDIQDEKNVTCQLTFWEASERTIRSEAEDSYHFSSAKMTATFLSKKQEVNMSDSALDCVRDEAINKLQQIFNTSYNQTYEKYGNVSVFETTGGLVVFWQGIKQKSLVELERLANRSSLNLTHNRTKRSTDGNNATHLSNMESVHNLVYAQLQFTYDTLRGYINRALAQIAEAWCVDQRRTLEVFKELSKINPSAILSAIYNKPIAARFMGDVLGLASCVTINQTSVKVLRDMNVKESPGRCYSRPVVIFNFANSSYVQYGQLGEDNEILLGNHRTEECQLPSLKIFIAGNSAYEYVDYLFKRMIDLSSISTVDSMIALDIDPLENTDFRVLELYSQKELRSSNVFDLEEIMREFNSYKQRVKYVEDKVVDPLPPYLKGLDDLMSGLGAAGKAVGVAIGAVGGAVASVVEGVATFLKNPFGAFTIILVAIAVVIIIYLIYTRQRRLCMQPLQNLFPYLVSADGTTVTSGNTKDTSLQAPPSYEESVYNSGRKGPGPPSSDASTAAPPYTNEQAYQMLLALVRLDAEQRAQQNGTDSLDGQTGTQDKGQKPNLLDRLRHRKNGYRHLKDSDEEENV

B1: anti-AD1 antibody EV2038 (antibody, human IgG1, lambda, V domains shown)
VH: QVQLQQWGAGLLKPSETLSLTCAVYGGSFSGYYWGWIRQPPGKGLEWIGEINHSGSANSNPSLKSRVTMSVDTSKNQFSLKVSSVTAADTAVYFCARVTRDLEWIPGDYYMDVWGKGTTVTVSS
VL: QSVLTQPPSASGTPGQRVSISCSGSLSNIGTNYVYWYQQLPGTAPKLLIFKNNQRPSGVPDRFSGSKSGTSASLAISGLRSEDEADYYCAAWDDSLNGYVFGTGTKVTVLG
notes: complete human IgG1λ; also called EV2038 (original); anti-HCMV antibody (EV2038)
- binding result [1]: binds
- binding result [2]: binds
- binding result [3]: binds
- binding result [4]: binds
- binding result [5]: binds
- IC50 of plaque formation, clinical isolate T-137, fibroblast cell [6]: 0.07 mg/L
- IC50 of plaque formation, clinical isolate T-137, fibroblast cell (mol concentration) [6]: 0.47 nM
- IC50 of plaque formation, HCMV Merlin, fibroblast cell [7]: 0.012 mg/L
- IC50 of plaque formation, HCMV Merlin, fibroblast cell (mol concentration) [7]: 0.08 nM
- IC50 of plaque formation, HCMV Davis, fibroblast cell [8]: 0.037 mg/L
- IC50 of plaque formation, HCMV Davis, fibroblast cell (mol concentration) [8]: 0.25 nM
- IC50 of plaque formation, HCMV AD169, fibroblast cell [9]: 0.027 mg/L
- IC50 of plaque formation, HCMV AD169, fibroblast cell (mol concentration) [9]: 0.18 nM
- IC50 of plaque formation, clinical isolate MDU-1, epithelial cell [10]: 0.04 mg/L
- IC50 of plaque formation, clinical isolate MDU-1, fibroblast cell [10]: 0.044 mg/L
- IC50 of plaque formation, clinical isolate MDU-1, fibroblast cell (mol concentration) [10]: 0.29 nM
- IC50 of plaque formation, HCMV Towne, fibroblast cell [11]: 0.025 mg/L
- IC50 of plaque formation, HCMV Towne, fibroblast cell (mol concentration) [11]: 0.17 nM
- IC50 of neutralisation of HCMV AD169 infection of MRC-5 cells (IE1 immunostaining), with complement (Cp+) [12]: 0.58 mg/L
- IC50 of neutralisation of HCMV AD169 infection of MRC-5 cells (IE1 immunostaining), without complement (Cp-) [12]: 0.57 mg/L

B2: EV2038 CDR-H3 deletion variant E122del (antibody, V domains shown)
VH: QVQLQQWGAGLLKPSETLSLTCAVYGGSFSGYYWGWIRQPPGKGLEWIGEINHSGSANSNPSLKSRVTMSVDTSKNQFSLKVSSVTAADTAVYFCARVTRDLWIPGDYYMDVWGKGTTVTVSS
VL: B1 VL
notes: original EV2038 L-chain
- binding result [13]: no binding

B3: EV2038 CDR-H3 insertion variant G126_D127insE (antibody, V domains shown)
VH: QVQLQQWGAGLLKPSETLSLTCAVYGGSFSGYYWGWIRQPPGKGLEWIGEINHSGSANSNPSLKSRVTMSVDTSKNQFSLKVSSVTAADTAVYFCARVTRDLEWIPGEDYYMDVWGKGTTVTVSS
VL: B1 VL
notes: original EV2038 L-chain
- binding result [13]: no binding

B4: EV2038 CDR-H3 variant V132K (antibody, V domains shown)
VH: B1 VH with V113K
VL: B1 VL
- 50% inhibition concentration (IC50) of HCMV infection (immunostaining method of Abai et al.) [14]: 1.2 mg/L

B5: EV2038 CDR-H3 variant I124D (antibody, V domains shown)
VH: B1 VH with I105D
VL: B1 VL
notes: original EV2038 L-chain
- binding result [13]: no binding

B6: EV2038 CDR-H3 variant I124V (antibody, V domains shown)
VH: B1 VH with I105V
VL: B1 VL
- 50% inhibition concentration (IC50) of HCMV infection (immunostaining method of Abai et al.) [14]: 0.45 mg/L
